Article PMC5667739 (PLoS Pathogens, 2017)

B1: Nano-27 (VHH)
VHH: QVQLQESGGGLVQPGGSLRLSCAASGTIFSRNIMGWYRQAPGKERELVASIYSDRSTWYAESVEGRFTISRDNVKNTLYLQMNSLKPEDTAMYYCRDRTLGSWGQGTQVTVSS
B2: Nano-42 (VHH)
VHH: QVQLQESGGGLVQPGGSLRLSCAASGSVSRTYVMGWYRQTPGNQRELVATITSVGSTNYADSLKGRFTISRENAENTVYLQMNSLKPEDTAIYYCKYIRYSPIHAPLDYWGQGTQVTVSS
B3: Nano-32 (VHH)
VHH: QVQLQESGGGLVQPGGSLRLSCAASGFTLGYYPIGWFRQAPGKGLEGVSCISGSGGSANYAASVKGRFTISRDNAKNTVYLQMNSLKPEDTAIYYCAADLSSLTTVQAMCVIPRPGFSAKAYDYWGLGTQVTVSS
B4: Nano-4 (VHH)
VHH: QVQLQESGGGLVQPGGSLRLFCAASGFTFSSYAMRWYRQAPGKERELVAAITSAGGSTHYADSVKERFTISRDNAKNTMYLQMNSLKPEDTAVYYCNARRDYGDSWFTAGGGYWGQGTQVTVSS
B5: Nano-26 (VHH)
VHH: QVQLQESGGGLVQPGGSLRLSCTAPRIIFFMYDVGWYRQAPEKQRELVAQINSDVSTKYADSVKGRFTISRDNAKRTVYLQMNDLKPEDAAVYYCNVRRASADYWGQGTQVTVSS
notes: also called N26; source: E. coli WK6 (pHEN6C vector), purified
B6: Nano-14 (VHH)
VHH: QVQLQESGGGLVQSGGSLRLSCAASRNINSMHVVGWYRQAPGNQRELVASITDDGSTDYVDSVKGRFTISRDIAENTVYLQMNSLNPEDTAVYYCKGTIVVFTTPMHYWGKGTQVTVSS
notes: also called N14; source: E. coli WK6 (pHEN6C vector), purified

These binders were tested against T1, GII.10 P domain (Vietnam026) (norovirus GII.10 (Vietnam026)) (assay: ITC). Conditions: both partners purified.
T1 construct: source: E. coli, purified
With B1 the “stoichiometry N” value was 1 Nanobody per P domain monomer. With B2 the “stoichiometry N” value was 1 Nanobody per P domain monomer. In the case of B3, the “stoichiometry N” value is reported as 1 Nanobody per P domain monomer. B4 was tested, and the “stoichiometry N” value was 1 Nanobody per P domain monomer. With B5 the “stoichiometry N” value was 1 Nanobody per P domain monomer. For B6, the “stoichiometry N” value was 0.5 Nanobody per P domain monomer.

Each binder was assayed against T1, GII.10 P domain (Vietnam026) (assay: ELISA). Conditions: both partners purified.
For B2, the “lowest Nanobody concentration that detected the antigen (direct ELISA)” value was 20 ng/mL. With B4 the “lowest Nanobody concentration that detected the antigen (direct ELISA)” value was 20 ng/mL. With B5 the “lowest Nanobody concentration that detected the antigen (direct ELISA)” value was 20 ng/mL. In the case of B6, the “lowest Nanobody concentration that detected the antigen (direct ELISA)” value is reported as 20 ng/mL.

Biological target: T1, GII.10 P domain (Vietnam026)
Assay: ITC
Conditions: both partners purified
Remark: another data set of the same source
For B1, the Kd was 9.5 nM and the dH was -8.1 kcal/mol. With B2 the Kd was 0.809 nM and the dH was -9.84 kcal/mol. B3 gave a Kd of 60 nM and a dH of 5 kcal/mol. Binder B4 has a Kd of 35 nM and a dH of -12 kcal/mol. Binder B5 has a Kd of 3.2 nM and a dH of -10 kcal/mol. Binder B6 has a Kd of 10.4 nM and a dH of -22 kcal/mol.
